This is an account of results in article PMC11477680, “A Label-Free Electrochemical Aptamer Sensor for Sensitive Detection of Cardiac Troponin I Based on AuNPs/PB/PS/GCE”.

Series [1] addresses T1, myoglobin (Myo) (UniProt P02144 2-154).
T1 sequence: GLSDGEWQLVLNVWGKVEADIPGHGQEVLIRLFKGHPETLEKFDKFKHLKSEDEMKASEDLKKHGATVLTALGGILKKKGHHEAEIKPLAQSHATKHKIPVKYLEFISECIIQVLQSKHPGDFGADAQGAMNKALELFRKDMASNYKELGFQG
The series can be described thus: electrochemical aptasensor (DPV); 1 ng/mL; negligible current change; Aptamer immobilization: 20 mM Tris-HCl, 5 mM MgCl2, 50 mM NaCl, pH 7.4, 4 C; cTnI incubation 1 h (serum samples: 10% serum in 20 mM Tris-HCl, 150 mM NaCl, pH 7.4, 37 C); DPV read in 0.8 M KNO3, CV/EIS in 0.1 M PBS with 5 mM [Fe(CN)6]3-/4-. As to conditions: protein: commercial.

The target in series [2] is cardiac troponin I (cTnI) (UniProt P19429 2-210). The series can be described thus: electrochemical aptasensor (DPV, CV, EIS); DPV response 10 fg/mL-1.0 ug/mL, LOD 2.03 fg/mL; Rct 514 to 606 ohm with 100 ng/mL cTnI; Aptamer immobilization: 20 mM Tris-HCl, 5 mM MgCl2, 50 mM NaCl, pH 7.4, 4 C; cTnI incubation 1 h (serum samples: 10% serum in 20 mM Tris-HCl, 150 mM NaCl, pH 7.4, 37 C); DPV read in 0.8 M KNO3, CV/EIS in 0.1 M PBS with 5 mM [Fe(CN)6]3-/4-. The note with it: protein: commercial.
Chain of cardiac troponin I (cTnI) (P19429 2-210): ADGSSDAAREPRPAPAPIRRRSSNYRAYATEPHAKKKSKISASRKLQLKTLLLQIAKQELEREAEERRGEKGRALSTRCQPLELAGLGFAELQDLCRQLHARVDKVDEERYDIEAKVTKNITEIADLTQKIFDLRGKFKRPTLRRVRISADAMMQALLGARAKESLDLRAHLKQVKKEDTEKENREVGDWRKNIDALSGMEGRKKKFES

In the case of CGTGCAGTACGCCAACCTTTCTCATGCGCTGCCCCCCTCTTA (ssDNA, 5'-SH-(C6) thiol linker) [Tro4], the binding result is given as “no binding” in series [1] and “binds” in series [2].
